{"source": "patent US20250073334A1", "molecular_target": "CpG-ST-E2 nanoparticle (ST-E2 with CpG 1826 conjugated in the internal cavity) (Geobacillus stearothermophilus)", "assay": "SpyTag-SpyCatcher reaction, SDS-PAGE"}
{"substance": "SpyCatcher-H5 hemagglutinin construct", "values": [{"measurement": "units of H5 conjugated per nanoparticle (units of H5 per nanoparticle)", "value": 17.1}]}
